Test results from patent US20210403541A1 (Merck Sharp & Dohme, published 2021).
Residue numbers refer to the chain shown, from its start. Names and notes keep the numbering of the source. Each block holds one binder with its values, some of them ahead of it. Non-standard residues stand in square brackets, D forms with d. No end group written: not given here. pS = N[C@@H](COP(=O)(O)O)C(=O)O

Experiments:
[1] = target: T1, pT212/pS214GC (69AXY) (human, phosphothreonine 212 and phosphoserine 214 of tau, printed GCGSPGTPGSRSR(pT)P(pS)LPTPPTREPK); assay: peptide-coated ELISA (1 µg/ml peptide 69AXY coat, anti-human IgG-HRP, ABTS, OD405)
T1 construct: also called T-pT212pS214GC
T1 peptide: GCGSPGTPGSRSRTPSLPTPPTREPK
Protocol: (§1) Binding specificity of the high affinity antibodies described herein was assessed with various tau peptides by a peptide-coated ELISA. Plates were coated with 50 μl of 1 μg/ml peptides 69AXY, 70AXY, 74AXY, 84AWK, 25AWF, or 24AWF in PBS for overnight at 4° C. On the next day, the plates were washed 3 times, blocked with 200 μl of superblock for 1 hr at room temperature, then washed 3 times again. Antibodies were diluted at 1:5 serial dilution in ELISA buffer starting from 10 μg/ml. The plates were incubated with 50 μl of serially diluted antibodies at room temperature for 1 hr and washed 3 times.

[2] = target: T2, pSer412Cys (74AXY) (human); assay: peptide-coated ELISA (1 µg/ml peptide 74AXY coat, anti-human IgG-HRP, ABTS, OD405)
T2 peptide: NV[pS]STGSC
Protocol: as §1

[3] = target: T3, pS396/400/404GC (84AWK) (human, phosphoserines at 396, 400 and 404 of tau, printed GCRENAKAKTDHGAEIVYK(pS)PVV(pS)GDT(pS)PRHL); assay: peptide-coated ELISA (1 µg/ml peptide 84AWK coat, anti-human IgG-HRP, ABTS, OD405)
T3 construct: also called T-pS396/400/404GC
T3 peptide: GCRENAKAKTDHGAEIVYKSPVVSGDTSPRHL
Protocol: as §1

[4] = target: human FcRn (human, UniProt P55899 24-297; P61769 21-119, limits assumed); assay: SPR (Biacore), antibody captured by anti-human kappa, FcRn injected, pH 6.0, steady-state fit; pH 6.0
Protocol: (§2) Anti-human kappa antibody was amine coupled to a CMS chip. Each antibody was captured to 200-300 RUs. Binding assays were performed using PBS running buffer containing 0.05% Tween-20, adjusted to either pH 6.0 or 7.4. Titration samples were also prepared using the corresponding pH buffer for the assay. Titrating concentrations (1200 nM top, 6-point, 3-fold dilution series and two zeros) of human or cyno FcRn were injected over the captured mAbs. Each sample injection was followed by two 30-second injections of 10 mM glycine, pH 1.5 and a 12-second injection of 10 mM NaOH to regenerate the surface for subsequent antibody capture and injection. All assays were run on Biacore T200 and/or 4000 instruments (GE Healthcare) and the data were fit to a steady-state approximation model using Biaevaluation software. Affinity at pH 6.0 was calculated as equivalent to concentration at half maximal binding signal in the steady-state approximation (TABLE 9).

[5] = target: cynomolgus monkey (cyno) FcRn (cynomolgus monkey, UniProt Q8SPV9 24-297; Q8SPW0 21-119, limits assumed); assay: as above
Protocol: as §2

[6] = target: T4, tau species in CSF of African Green Monkeys (African Green Monkey); assay: competitive ELISA, fresh AGM CSF (75 µl of neat CSF)
T4 construct: also called Fresh African Green Monkey (AGM) CSF
Protocol: (§3) Binding affinities of various anti-tau-pS413 antibodies described herein for endogenous tau species were determined in brain homogenates and CSF samples from AD patients and preclinical models. Briefly, samples were pre-incubated with different concentrations of various anti-tau-pS413 antibodies, or respective isotype controls. Following a one-hour pre-incubation period, the antigen-antibody (Ag-Ab) mixture was added to plates pre-coated with a total tau capture antibody (Innotest ELISA kit).

[7] = target: T5, tau species in brain homogenates from mutant tau mice (rTg(tauP301L)4510), sarkosyl insoluble tau seeds; assay: competitive ELISA, tau mutant mice brain SI tau seeds (4 ng protein)
T5 construct: also called Tau mutant mice brain; SI Tau seeds
Protocol: as §3
Tissue homogenates were prepared using 1% sarkosyl buffer with several high-speed centrifugation steps to enrich for insoluble proteins including tau.

[8] = target: T6, phosphorylated tau protein monomer (35 AWM); assay: competitive ELISA, phosphorylated tau protein monomer 35 AWM (1 ng)
T6 construct: also called recombinant phosphorylated tau protein monomer

B1: V5-AFM-hIgG4-S228P (antibody, V domains shown)
VH: EVQLVESGGGLVQPGGSLRLSCAASGFTFSSFALNWVRQAPGKGLEWVGHIRSKTNNYVTFYAASVKGRFTVSRDDSQNTAYLQMNSLKTEDTATYYCVRRGPRDSWFGYWGQGTLVTVSS
VL: DIVMTQSPLSLPVTLGEPASISCRSSQKIVHRNANTYLEWYLQKPGQSPQLLIYTVSNRFSGVPDRFSGSGSGTDFTLKISRVEAEDLGVYYCFQGSYLPLTFGGGTKVEIK
notes: also called V5-AFM-IgG4-S228P
- binding result [1]: no binding (tested: 10 µg/ml)
- binding result [2]: no binding (tested: 10 µg/ml)
- binding result [3]: no binding (tested: 10 µg/ml)

B2: V8-AFM-hIgG1-LALA (antibody)
heavy: not shown
light: DIVMTQSPLSLPVTLGEPASISCRSSQKIVHRNANTYLEWYLQKPGQSPQLLIYTVSNRFSGVPDRFSGSGSGTDFTLKISRVEAEDLGVYYCFQGSYLPLTFGGGTKVEIKRTVAAPSVFIFPPSDEQLKSGTASVVCLLNNFYPREAKVQWKVDNALQSGNSQESVTEQDSKDSTYSLSSTLTLSKADYEKHKVYACEVTHQGLSSPVTKSFNRGEC
notes: Human IgG1 L234A L235A/kappa; also called V8-AFM-IgG1-LALA
- binding result [1]: no binding (tested: 10 µg/ml)
- Human FcRn fold change (relative to HmzTa1505-hIgG4-S228P) [4]: 1 fold
- Kd [4]: 230 nM
- Cyno FcRn fold change (relative to HmzTa1505-hIgG4-S228P) [5]: 1.6 fold
- Kd [5]: 160 nM
- binding result [2]: no binding (tested: 10 µg/ml)
- binding result [3]: no binding (tested: 10 µg/ml)

B3: V8-AFM-hIgG4-S228P (antibody)
heavy: not shown
light: B2 light
notes: also called V8-AFM-IgG4-S228P
- binding result [1]: no binding (tested: 10 µg/ml)
- Human FcRn fold change (relative to HmzTa1505-hIgG4-S228P) [4]: 1 fold
- Kd [4]: 210 nM
- Cyno FcRn fold change (relative to HmzTa1505-hIgG4-S228P) [5]: 1 fold
- Kd [5]: 260 nM
- binding result [2]: no binding (tested: 10 µg/ml)
- binding result [3]: no binding (tested: 10 µg/ml)

Next, values leading:

- Human FcRn fold change (relative to HmzTa1505-hIgG4-S228P) [4]: 1 fold
- Kd [4]: 220 nM
- Cyno FcRn fold change (relative to HmzTa1505-hIgG4-S228P) [5]: 1 fold
- Kd [5]: 260 nM
- EC50 [6]: 2.08 nM
- EC50 [7]: 0.67 nM
- EC50 [8]: 6.73 nM
B4: HmzTa1505-hIgG4-S228P (antibody)
heavy: not shown
light: B2 light with K28N, R32S, Y98H

- binding result [1]: no binding (tested: 10 µg/ml)
- Human FcRn fold change (relative to HmzTa1505-hIgG4-S228P) [4]: 6.5 fold
- Kd [4]: 34 nM
- Cyno FcRn fold change (relative to HmzTa1505-hIgG4-S228P) [5]: 11 fold
- Kd [5]: 24 nM
- binding result [2]: no binding (tested: 10 µg/ml)
- EC50 [6]: 0.008 nM
- EC50 [7]: 0.004 nM
- EC50 [8]: 0.055 nM
- binding result [3]: no binding (tested: 10 µg/ml)
B5: V8-AFM-hIgG1-LALA-YTE (antibody)
heavy: EVQLVESGGGLVQPGGSLRLSCAASGFTFSSFALNWVRQAPGKGLEWVGHIRSETNNYVTFYAASVKGRFTVSRDDSQNTAYLQMNSLKTEDTATYYCVRRGPRDSWFGYWGQGTLVTVSSASTKGPSVFPLAPSSKSTSGGTAALGCLVKDYFPEPVTVSWNSGALTSGVHTFPAVLQSSGLYSLSSVVTVPSSSLGTQTYICNVNHKPSNTKVDKKVEPKSCDKTHTCPPCPAPEAAGGPSVFLFPPKPKDTLYITREPEVTCVVVDVSHEDPEVKFNWYVDGVEVHNAKTKPREEQYNSTYRVVSVLTVLHQDWLNGKEYKCKVSNKALPAPIEKTISKAKGQPREPQVYTLPPSRDELTKNQVSLTCLVKGFYPSDIAVEWESNGQPENNYKTTPPVLDSDGSFFLYSKLTVDKSRWQQGNVFSCSVMHEALHNHYTQKSLSLSPGK
light: B2 light
notes: Human IgG1 L234A L235A YTE/kappa; also called V8-AFM-IgG1-LALA-YTE
